# T1: 35S-labeled in vitro translated GID
# T1 chain: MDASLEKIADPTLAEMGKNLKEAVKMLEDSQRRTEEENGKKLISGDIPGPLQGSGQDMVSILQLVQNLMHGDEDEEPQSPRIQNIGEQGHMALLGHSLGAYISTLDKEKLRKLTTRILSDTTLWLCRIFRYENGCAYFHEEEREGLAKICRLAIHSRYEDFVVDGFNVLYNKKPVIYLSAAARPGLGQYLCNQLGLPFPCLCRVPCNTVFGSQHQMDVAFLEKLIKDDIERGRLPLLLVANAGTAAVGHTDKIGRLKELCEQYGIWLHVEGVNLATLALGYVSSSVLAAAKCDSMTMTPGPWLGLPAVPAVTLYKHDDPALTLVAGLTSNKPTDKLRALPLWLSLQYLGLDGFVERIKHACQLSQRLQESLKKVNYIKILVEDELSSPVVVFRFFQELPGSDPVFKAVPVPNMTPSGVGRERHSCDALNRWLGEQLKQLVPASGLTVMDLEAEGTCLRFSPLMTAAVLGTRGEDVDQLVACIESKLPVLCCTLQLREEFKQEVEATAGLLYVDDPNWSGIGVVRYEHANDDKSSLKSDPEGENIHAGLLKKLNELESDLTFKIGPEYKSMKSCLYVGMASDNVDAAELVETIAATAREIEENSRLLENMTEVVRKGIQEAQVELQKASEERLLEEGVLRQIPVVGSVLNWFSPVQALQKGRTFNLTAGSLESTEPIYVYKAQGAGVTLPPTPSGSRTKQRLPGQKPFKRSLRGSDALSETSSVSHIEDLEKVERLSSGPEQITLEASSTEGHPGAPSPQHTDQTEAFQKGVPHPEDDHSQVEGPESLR
# B1: recombinant caspase-3 (Pharmingen) (protein)
# chain: SGISLDNSYKMDYPEMGLCIIINNKNFHKSTGMTSRSGTDVDAANLRETFRNLKYEVRNKNDLTREEIVELMRDVSKEDHSKRSSFVCVLLSHGEEGIIFGTNGPVDLKKITNFFRGDRCRSLTGKPKLFIIQACRGTELDCGIETDSGVDDDMACHKIPVEADFLYAYSTAPGYYSWRNSKDGSWFIQSLCAMLKQYADKLEFMHILTRVNRKVATEFESFSFDATFHAKKQIPCIVSMLTKELYFYH
# Target: T1, 35S-labeled in vitro translated GID
protein,measurement,value
B1,"in vitro caspase-3 assay: cleavage of 35S-labeled in vitro translated GID (SDS-PAGE, autoradiography)","Increasing amounts of caspase-3 incubated with GID resulted in greater amounts of a cleavage product of approximately 58 kDa, which was not observed in the presence of incubation with buffer alone"
